Data taken from patent US20090215120A1 (UNIVERSITY OF MEDICINE AND DENTISTRY OF NEW JERSEY, published 2009).

Tests used:
[1] = target: T1, OmpR, transcription factor (response regulator) of E. coli, P0AA16
T1 chain: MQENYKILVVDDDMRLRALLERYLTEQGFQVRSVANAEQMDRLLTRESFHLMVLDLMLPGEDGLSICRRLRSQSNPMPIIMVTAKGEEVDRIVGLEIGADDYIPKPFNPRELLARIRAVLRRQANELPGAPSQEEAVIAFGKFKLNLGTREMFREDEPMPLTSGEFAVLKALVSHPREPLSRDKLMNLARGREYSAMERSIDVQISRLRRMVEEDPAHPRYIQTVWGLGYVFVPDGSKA

[2] = target: PrS2-OmpR (OmpR fused to two tandem repeats of the N-terminal domain, residues 1-92, of protein S of Myxococcus xanthus), P02966
[3] = target: T2, phosphorylated OmpR (OmpR-P), P0AA16
T2 chain: T1 chain

[4] = target: phosphorylated PrS2-OmpR (PrS2-OmpR-P)
[5] = target: T3, EnvZc, the cytoplasmic domain of EnvZ (histidine kinase of E. coli) (E. coli, UniProt P0AEJ4 180-450); experiment: 10% native PAGE, 4 uM of each protein, 5 min at room temperature
T3 construct: domain: cytoplasmic domain of EnvZ; Purified EnvZc
T3 sequence: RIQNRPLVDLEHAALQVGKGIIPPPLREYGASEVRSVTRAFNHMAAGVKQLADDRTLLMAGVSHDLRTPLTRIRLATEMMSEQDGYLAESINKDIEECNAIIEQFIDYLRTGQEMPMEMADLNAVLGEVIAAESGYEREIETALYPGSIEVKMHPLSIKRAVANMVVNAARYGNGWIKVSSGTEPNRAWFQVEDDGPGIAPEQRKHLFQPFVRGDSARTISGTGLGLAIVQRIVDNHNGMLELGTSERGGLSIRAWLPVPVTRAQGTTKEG

PrS2-OmpR (OmpR fused to two tandem repeats of the N-terminal domain, residues 1-92, of protein S of Myxococcus xanthus), P02966, sequence (P02966 whole entry, looked up, the tested form may be a part): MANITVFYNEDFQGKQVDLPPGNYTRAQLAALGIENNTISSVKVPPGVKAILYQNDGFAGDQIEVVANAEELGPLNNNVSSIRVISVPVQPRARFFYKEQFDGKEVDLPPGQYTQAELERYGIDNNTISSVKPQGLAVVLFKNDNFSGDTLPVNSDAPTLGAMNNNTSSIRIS

B1: phosphorylated EnvZc (EnvZc-P), 32P-labelled (protein)
chain: T3 sequence
B1 was tested, and the “phosphotransfer from 32P-labelled EnvZc-P to OmpR (SDS-PAGE, autoradiography)” value [1] was “the phosphoryl group on EnvZ was instantly transferred to OmpR and this reaction was completed in 120 sec” and the “phosphotransfer from 32P-labelled EnvZc-P to PrS2-OmpR (SDS-PAGE, autoradiography)” value [2] was “EnvZc-P was able to phosphorylate PrS2-OmpR and the result was almost identical to the non-tagged OmpR”.

B2: EnvZc, the cytoplasmic domain of EnvZ (histidine kinase of E. coli) (protein)
chain: T3 sequence
B2 was tested, and the “dephosphorylation of OmpR-P by EnvZc upon addition of ADP (SDS-PAGE, autoradiography)” value [3] was “OmpR-P was quickly dephosphorylated and Pi was released” and the “dephosphorylation of PrS2-OmpR-P by EnvZc upon addition of ADP (SDS-PAGE, autoradiography)” value [4] was “Although in case of PrS2-OmpR, this reaction was slowed by PrS2 tag, phosphorylated PTS2-OmpR was dephosphorylated by EnvZc”.

B3: OmpR, transcription factor (response regulator) of E. coli (other)
chain: T1 chain
notes: Purified wild-type OmpR; also called wild-type OmpR; non-tagged OmpR
B3: binds [5].
